Measured values from article PMC11316097 (Nature Communications, 2024).

Biological target: T1, bovine cyclin A2 residues 169-430 (bovine, UniProt P30274 169-430)
T1 construct: cyclin A2, bovine, residues 169-430 of UniProt P30274 (equivalent to human cyclin A residues 171-432, UniProt P20248)
Assay: cryo-EM structure; purified pY15pT160CDK2, cyclin A and CDC25A(C431S) mixed 1:1.5:2, 1 hr on ice, gel filtration (Superdex S200) in 40 mM HEPES, 200 mM NaCl, 1 mM DTT, pH 7.4; grids with CHAPS; 2.7 Å
Details: both partners purified

T1 sequence (P30274 169-430): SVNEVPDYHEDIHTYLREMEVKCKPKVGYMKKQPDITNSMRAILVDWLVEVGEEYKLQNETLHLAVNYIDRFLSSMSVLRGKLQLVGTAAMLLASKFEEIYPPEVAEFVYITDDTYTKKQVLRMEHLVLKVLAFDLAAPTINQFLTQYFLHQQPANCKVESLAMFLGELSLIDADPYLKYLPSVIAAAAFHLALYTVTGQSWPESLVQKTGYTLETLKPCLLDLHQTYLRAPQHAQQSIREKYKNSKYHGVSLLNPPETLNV

binding result: binds
B1: human CDC25A residues 335-524 (catalytic domain and C-terminal tail), Cys431Ser (domain or fragment, UniProt P30304 335-524, looked up)
chain: RDLIGDFSKGYLFHTVAGKHQDLKYISPEIMASVLNGKFANLIKEFVIIDCRYPYEYEGGHIKGAVNLHMEEEVEDFLLKKPIVPTDGKRVIVVFHSEFSSERGPRMCRYVRERDRLGNEYPKLHYPELYVLKGGYKEFFMKCQSYCEPPSYRPMHHEDFKEDLKKFRTKSRTWAGEKSKREMYSRLKKL
notes: Form used for cryo-EM and HDX-MS; also called CDC25A(C431S); CDC25A(Cys431Ser)
